This is an account of results in publication PMC9755527.

One series deals with CccR1-220 (Yersinia pseudotuberculosis, UniProt Q666X7 1-220). As to the kind of experiment: ITC. The settings on record: protein: recombinant; tags: His6 (pET28a) or GST (pGEX6p-1).
A further series concerns the target CccR201-380 (Yersinia pseudotuberculosis, UniProt Q666X7 201-380). Description: ITC. The settings on record: protein: recombinant; tags: His6 (EMSA).
Another series has as its target CccR (Yersinia pseudotuberculosis, UniProt Q666X7 1-380). As to the kind of experiment: ITC; stoichiometry 1:2. The conditions noted are these: protein: recombinant; tags: His6 (pET28a) or GST (pGEX6p-1); His6 stated for EMSA; chain copies: 2.

B1: PcccR 100-bp ITC probe (dsDNA)
DNA 1: ATATTCAATCGGATGTATCGCCACGGATTTTTGAGATAATCATAAAGTTACTTTTGAGATAATCTACAAATGATAATCTGTTAACATAATGGCTATAAAG
DNA 2: CTTTATAGCCATTATGTTAACAGATTATCATTTGTAGATTATCTCAAAAGTAACTTTATGATTATCTCAAAAATCCGTGGCGATACATCCGATTGAATAT
As to B1, the results for the Kd in the series with CccR1-220, with CccR201-380 and with CccR were 1530 ± 130 µM, 6.13 ± 0.11 µM and 2.56 ± 0.12 µM, respectively.
